Source: the RNAGym collection of RNA variant scans (doi:10.1073/pnas.2313332121)
This sample holds only a part of the variants without activity.

B1: TPR 5TU (parent)
chain: GGAUCUUCUCGAUCUAACAAAAAAGACAAAUCUGCCACAAAGCUUGAGAGCAUCUUCGGAUGCAGAGGCGGCAGCCUUCGGUGGCGCGAUAGCGCCAACGUUCUCAACUAUGACACGCAAAACGCGUGCUCCGUUGAAUGGAGUUUAUCAUG

Variants of: B1
Assay: polymerase ribozyme fitness, log enrichment relative to wild type (log ratio); higher = more active; in vitro selection for triplet polymerase activity
Summary of the method: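 Only genotypes with ≥10 input reads and ≥1 read per output were kept after Illumina sequencing of input and output libraries. These libraries were PCR-built, transcribed mutants of each subunit of a heterodimeric triplet polymerase ribozyme, each put through one triplicate in vitro selection round with frozen incubation at −7 °C, gel excision of extended constructs, streptavidin-bead capture and RT-PCR. Fitness is a logarithmic ratio of genotype enrichment to wild-type enrichment, from inverse-variance-weighted replicate averages, with the logarithm in base 2.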

Row | Variant | polymerase ribozyme fitness (log ratio)
1 | GGAUCUUCUCGAUCUAACAAAAAGGACAAAUCUGCCACAAAGCUUGAGAGCAUCUUCGGAUGCAGAGGCGGCAGCCUUCGGUGGCGUGAUAGCGCCAACGUUCUCAACUAUGACACGCAAAACGCGUGCUCCGUUGAAUGGAGUUUAUCAUG | -2.3
2 | GGAUCUUCUCGAUCUAACAAAAAAGACAAAUCUGCCACAAAGCUUGAGAGCAUCUUCGGAUGCAGAGGCGGCAGCGUUCGGUGGCGAGAUAGCGCCAACGUUCUCAACUAUGACACGCAAAACGCGUGCUCCGUUGAAUGGAGCUUAUCAUA | ≤ -4.2
3 | GGAUCUUCUCGAUGUAACAAAAAAGACAAAUCUGCCACAAAGCUUGAGAUCAUCUGCGCAUGCAGAGGCGGCAGCCUUCGGUGGCGCGAUAGCGCCAACGUUCUCAAUUAUGACACGCAAAACGCGUGCUCCGUUGAAUGGAGUUUAUCAUG | ≤ -4.2
4 | GGAUCUUCUCGAUCUAACAAAAAAUACAAAUCUGCCACAAAGCUUGAGAGCAUCUUCGGAUGCAGAGGCGGCAGCCUUCGGUGUCGCGAUAGCGCCAACGUUCUCAACUAUGACACACAAAACGCGUGCUCCGUUGAAUGGAGUUUAUCAUG | -3.67
5 | GGAUCUUCUCGAUCUAACAAAAAAGACAAAUCUGCCACAAAGCUUGAGAGCAUCUUCGGAUGCAGAGGCGGCAGCCUUCUGUGGCGCGAUAGCGCCAACGUUCUCAACUAUGACACGCCAAAAGCGUGCUCCGUUGAAUGGAGUUUAUCAUG | -1.18
6 | GGAUCUUCUCGAUCUAACAAAAAAGACAAAUCUGCCACAAAGCUUGAGAGCAUCUUCGGGUGCAGAGGCGGCAGCCUUCGGUGGCGCGAUAGCGCCAACGUUCUCAAUUAUGACACGCAAAACGCUUGCUCCGUUGAAUGGAGUUUAUCAUG | -3.26
7 | GGAUCUUCUCGAUCUAACAAAAAAGACAAAUCUGCCACAAAGCUUGAGAGCAUCUUCGGAUGCAGAGGCGGCAGCCUUCGGUGGCGGGAUAGCGCCAACGUUCUCAACUAUGACUGGCAAAACGCGUGCUCCGUUGAAUGGAGUUUAUCAUG | -3.97
8 | GGAUCUUCUCGAUCUAACAAAAAAGACAAAUCUGCCACAAAGCUUGAGAGCAUCAUCGGAUGCAGAGGCGGCAGCCUUCGGUGGCGCGAUAGCGCCAACGUUCUCGACUAUGUCACGCAAAACGCGUGCUCCGUUCAAUGGAGUUUAUCAUG | ≤ -4.2
9 | GGAUCUUCUCGAUCUAACAAAAAAGACAAAUCUGCCACAAAGCUUGAGAGCAUCUUCGAAUGCAGAGGCGGCAGCCUUAGGAGGCGCGAUAGCGCAAACGUUCUCAACUAUGACACGCAAAACGCGUGCUCCGUUGAAUGGAGUUUAUCAUG | -3.85
10 | GGAUCUUCUCGAUCUAACAAAAAAGACAAAUCUGCCACAAAGCUUGAGAGCAUUUUCGGAUGCAGAGGCGGCAGCCUUCGGCGGCGCGACAGCGCAAACGGUCUCAACUAUGACACGCAAAACGCGUGCUCCGUUGAAUGGAGUUUAUCAUG | ≤ -4.2
11 | GGAUCUUCUCGAUCUAACAAAAAAGACAAAUCUGCCACAAAUCUUGAGAGCAUGUUUGGAUGCAAAGGCGGCAGCCUUCGGUGGCGCGAUACCGCCAACGUUCUCAACUCUGACACGCAAAACGCGUGCUCCGUUGAAUGGAGUUUAUCAUG | ≤ -4.2
12 | GGAUCUUCUCGAUCAAAGAAAAAAGACAAAUCUGCCACAAAGCUUGAGAGCAUCUUCGGAUGCAGAGGCGGCAGCCUUCGGUGGCGCGAUAGCGCCAACGUUCUCAACUAUGACACGCAAAACGCGUGCUCCGUUGAAUGGAGUUGAUCAUG | -0.119
13 | GGAUCUUCUCGAACUAACAAAAAAGACAAAUCUGCCACAAAGCUUGGGAGCAUCUUCGGAUGCAGAGGCGGCAGCCUUCGGGGGCGCGAUAGCGGCAACGUUCUCAACUAUGACACGCAAAACGCGUGCUCCGUUGAAUGGAGUUUAUCAUG | -3.73
14 | GGAUCUUCUCGAUCAAACAAAAAAGACAAAUCUGCCACAAAGCUUGAGAGCAUCUUCGGAUGCAGAGGCGGCAGCCUUCGGUGGCGCGAUAGCGCCAACGUUCUCAACUACUACACGCAAAACGCGUGCUCCGUUGAAUGGAGUUUAUCAUG | -3.91
15 | GGAUUUUCUCGAUCUAACAAAAAAGACAAAUCUGCCACAAAGCUUGAGAGCAUCUUCGGAUGGAGAGGCGGCGGCCUUCGCUGGCGCGAUAGCGCCAACGUUCUUAACUAUGACCCGCAAAACGCGUGCUCCGUUGACUGGAGUUUAUCAUG | ≤ -4.2
16 | GGAUCUUCUCGAUCUAACGAAAAAGACAAAUCUGCCACAAAGCUUGAGAGCAUCUUCGGAUGCAGAGGCGGCAGCCAUCGGUGGCGCGAUAGCGCUAACGUUCUCAACUAUGGCACGCAAAACGCGUGCUCCGUUGAAUGGAGUUUAUCAUG | ≤ -4.2
17 | GGAUCUUCUCGAUCUAACAAAAAAGACAAAUCUGCCACAAAGCUUGAGAGCAUCUUCGGAUGCAGAGGCGGCAGCCUUCGGUGGCGUGAUAGCGCCAACGUUCUCAACUAUGACACGCAAAACGUGUGCUCCGUUGAAUGGAGUUUAUCAUG | -2.13
18 | GGAUCUUCUCGAUCUAACAAAAAAGACAAAUCUGCCACAAAGCUUGAGAGCAUCGUCGGAUGCAGAGGCGGCAGCCUUCGGUGGCGCGAUAGCGCCAACGUUCUCAACUAUGACAGGCAAAACGCGUGCUCCGUUGAAUGGAGUUUAUCAUG | 0.357
19 | GGAUCUUCUCGAUCUAACAAAAAAGACAAAUCUGCCACAAAGCUUGAGAGCAUCUUCGGAUGCAGAGGCGGCAGCCUGCGGUGGCGAGAUAGCGCCAACGUUCUCAACUAUGACACGCAAAACGCGUGCUCCGUUGAAUGGAGUUUAUCAUG | ≤ -4.2
